Measurements: the supplement of paper PMC9170038

Tested on: MS2 coat protein
Assay: apparent KD of MS2 coat protein; designed switch direction (-1 OFF switch, 1 ON switch): -1; higher = weaker reporter binding
In short: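 Transcription of designed RNA switches on Illumina chips was done by stalled E. coli RNA polymerase. SNAP-549-labelled MS2 coat protein was then titrated in doubling steps from 0.7 or 1.5 nM to 3 µM, with steps of 0.8–1.5 h at the lowest and 10–20 min at the highest concentration. The per-design median over clusters of curve-fitted normalised fluorescence is reported as apparent KD.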

[1] = input ligand: microRNA oligo, concentration not stated
[2] = Eterna round: R95, input ligand: microRNA oligo, concentration not stated
[3] = Eterna round: R95, input ligand: FMN 200 uM
[4] = Eterna round: R95, input ligand: none

For “AACACACAUGAGGAUCACCCAUGUGAGGAUAUCGUCGAGGAUGUAAUGCCAUCCGUGACGAGAAGGCACUUGGG [Exclusion 1 (Mod 3 solution 40 by Eternabot)] (Eterna round: R97, puzzle: Exclusion 1)”, the “apparent KD of MS2 coat protein” value (input ligand: FMN 200 uM) was 58.8 nM and the “apparent KD of MS2 coat protein” value (input ligand: none) was 211 nM.
“AAACAAUCCCGAGGAUAUCGGCUAUUAGCAUGCCGAGAAGGCGGCGCGCAUCGACAUGAGGAUCACCCAUGUGUCCGCUCGGUU [Eternabot solution 31] (Eterna round: R96, puzzle: Exclusion NG 1)” was tested, and the “apparent KD of MS2 coat protein” value (input ligand: FMN 200 uM) was 20.8 nM, the “apparent KD of MS2 coat protein” value [1] was 13.6 nM and the “apparent KD of MS2 coat protein” value (input ligand: none) was 21.6 nM.
With “AGCGCCAUCGUGAGAUGGCGUAUUACAUGAGGAUCACCCAUGUAGGAUAUCGAUUGCUUUGCAGUCGAGAAGGGCAUGUCCCAG [JL ENG3 3.80 Mod J] (Eterna round: R96, puzzle: Exclusion NG 3)” the “apparent KD of MS2 coat protein” value (input ligand: FMN 200 uM) was 23 nM, the “apparent KD of MS2 coat protein” value [1] was 19.2 nM and the “apparent KD of MS2 coat protein” value (input ligand: none) was 24.1 nM.
With “CCUUCUCGUGUCAGGAUAUCCACUCAUCGAAAUUAGGAGAAGGGACAUGAGGAUCACCCAUGUAUACAUGCCAG [Cequesar] (puzzle: Brourd's mod of Exclusion 4)” the “apparent KD of MS2 coat protein” value [2] was 61.7 nM.
“AGUAACUAUCACGAAAGUGAUAGUUACAAAACAAGUGAAACAUGAGGAUCACCCAUGUCCUCACUUGCUCGUCUUAU [Sensor 3 - 5] (puzzle: Sensor v3, turn-off variant 2)” was tested, and the “apparent KD of MS2 coat protein” value [3] was 14.2 nM, the “apparent KD of MS2 coat protein” value [2] was 128 nM and the “apparent KD of MS2 coat protein” value [4] was 13.4 nM.
“GUCUUACAUGAGGAUCACCCAUGUGAGGAUAUGAGUGGUGCUGCUAGGUAGUAUAGACUCAGAAGGCGCAUGAU [Malcxlusion 3 - Jieux - Exclusion 1] (Eterna round: R97, puzzle: Exclusion 1)” was tested, and the “apparent KD of MS2 coat protein” value (input ligand: FMN 200 uM) was 37.7 nM and the “apparent KD of MS2 coat protein” value (input ligand: none) was 22.6 nM.
With “CCGCAAAUGCAGGAUAUCGUAUCGGAUACGAUACGAGAAGGGCAAACAUGAGGAUCACCCAUGUGUCCUAGCGG [Fiskers Ex 6 - 39] (puzzle: Exclusion 6)” the “apparent KD of MS2 coat protein” value [2] was 13.7 nM.
With “CCUCGACAUGAGGAUCACCCAUGUGAGGAUAUGGCCUGUAUGGCGUGAGCUGAAUCAAUCAGAAGGCGCGUGGG [salish99_ex1_r4_054] (Eterna round: R97, puzzle: Exclusion 1)” the “apparent KD of MS2 coat protein” value (input ligand: FMN 200 uM) was 56.3 nM and the “apparent KD of MS2 coat protein” value (input ligand: none) was 27 nM.
“AGAGAAUACUCAGGAUAUCGGAAUAGAAAGAGACGAGAAGGGAGACAUGAGGAUCACCCAUGUGAAGUCUUGAGGCUGCAUGGA [Prohibition 26 - Jieux - Exclusion NG 1] (Eterna round: R96, puzzle: Exclusion NG 1)” was tested, and the “apparent KD of MS2 coat protein” value (input ligand: FMN 200 uM) was 197 nM, the “apparent KD of MS2 coat protein” value [1] was 122 nM and the “apparent KD of MS2 coat protein” value (input ligand: none) was 165 nM.
In the case of “GUACUGACAGGAUAUACAUGAGGAUCACCCAUGUCCUUAAGCUGACAAAAGUCAGCGAGUAGAAGGGUCUGUAC [Omei Ex3 Model Bachelor's Dilema v4] (Eterna round: R97, puzzle: Exclusion 3)”, the “apparent KD of MS2 coat protein” value (input ligand: FMN 200 uM) is reported as 467 nM and the “apparent KD of MS2 coat protein” value (input ligand: none) is reported as 71.9 nM.
In the case of “GAGUUAGCGUGUGGAAUAUACAUGAGGAUCACCCAUGUUAGCUUAUAUAUUGCUCGUCUUAUAACAACAAUUAACUG [Mod JX-Electric-eye3] (Eterna round: R97, puzzle: Sensor, turn-off variant 1)”, the “apparent KD of MS2 coat protein” value (input ligand: FMN 200 uM) is reported as 138 nM and the “apparent KD of MS2 coat protein” value (input ligand: none) is reported as 143 nM.
In the case of “UUUAUAUAGUAAGGAUAUGUAUUAUUUUUUUCAACAGAAGGUACUGACAUGAGGAUCACCCAUGUUUUAGUGUGGGCAUGUAGU [JMF's solution 98] (Eterna round: R96, puzzle: Exclusion NG 1)”, the “apparent KD of MS2 coat protein” value [1] is reported as 323 nM.
In the case of “AGUACUAUGCGAGCUGACUUGCGUAGUGCAGCAGGUGGAACAUGAGGAUCACCCAUGUCCUCAUUUGCUCGUCUUAA [Mat - Sensor v3 - Turn-off var 2 - D5] (puzzle: Sensor v3, turn-off variant 2)”, the “apparent KD of MS2 coat protein” value [3] is reported as 27.4 nM, the “apparent KD of MS2 coat protein” value [2] is reported as 109 nM and the “apparent KD of MS2 coat protein” value [4] is reported as 29.8 nM.
For “CCAUCGUGUGUGAGGAUAUGCUGGUCCUUGGAUCAGCAGAAGGCACAUGAGGAUCACCCAUGUGAAUACGAUGG [Mat - Exclusion 4 - JL Mod - D87] (puzzle: Brourd's mod of Exclusion 4)”, the “apparent KD of MS2 coat protein” value [2] was 14.9 nM.
“CCGUAACAUGAGGAUCACCCAUGUCAGGAUAUUCCAAAAUCGUCGAAAGACGAUAACAGAAGAAGGGACAACGG [Fiskxlusion 2 - Jieux - Exclusion 1] (Eterna round: R97, puzzle: Exclusion 1)” was tested, and the “apparent KD of MS2 coat protein” value (input ligand: FMN 200 uM) was 47.6 nM and the “apparent KD of MS2 coat protein” value (input ligand: none) was 28.9 nM.
With “CGGAUGUGAGGAUAUACAUGAGGAUCACCCAUGUGAGCCAGCUAGAUGACUGGCUCGUGUAGAAGGCACGUCUG [Mat - Exclusion 3 - Mod of JL D92] (puzzle: Exclusion 3)” the “apparent KD of MS2 coat protein” value [2] was 12.1 nM.
With “CGAUUGUGAGGAUAUACUUGUGGUAAUGCACCUGUAUGUAAACAUGAGGAUCACCCAUGUAGAAGGUACGACAG [Eternabot (L2) Solution 11] (Eterna round: R97, puzzle: Exclusion 2)” the “apparent KD of MS2 coat protein” value (input ligand: FMN 200 uM) was 27.6 nM and the “apparent KD of MS2 coat protein” value (input ligand: none) was 27.5 nM.
With “CCCUCAGUCUAGGAUAUAACAAUCAGAUAUCAGUUAGAAGGAGACACAUGAGGAUCACCCAUGUGGGUCAAUAA [Bearener] (puzzle: Exclusion 6)” the “apparent KD of MS2 coat protein” value [3] was 50.7 nM, the “apparent KD of MS2 coat protein” value [2] was 20.2 nM and the “apparent KD of MS2 coat protein” value [4] was 21.3 nM.
For “UUUUACAUAGGAUAUAGUCUUUUUUACAUGAGGAUCACCCAUGUCUCUCUUUUUUUUUUUCUAGAAGGAUGUUUUU [JR_E5_Sub017] (puzzle: Exclusion 5)”, the “apparent KD of MS2 coat protein” value [2] was 16.8 nM.
For “UGACGAGUAGGAUAUUGGACUUGCGACAUGAGGAUCACCCAUGUGACGUCAACGUGGCACCAAGAAGGGCUACGUC [Gelareusdi] (Eterna round: R96, puzzle: Exclusion 5)”, the “apparent KD of MS2 coat protein” value (input ligand: FMN 200 uM) was 53.4 nM, the “apparent KD of MS2 coat protein” value [1] was 49.3 nM and the “apparent KD of MS2 coat protein” value (input ligand: none) was 63.3 nM.
With “CAGUACUGAGGAUAUACAUGAGGAUCACCCAUGUGUUCCAGCUAGGAUACUAGCAAAGGAAGAAGGCAGUACUG [Mat - Exclusion 3 - Eli Mod - D2] (Eterna round: R97, puzzle: Exclusion 3)” the “apparent KD of MS2 coat protein” value (input ligand: FMN 200 uM) was 19.4 nM and the “apparent KD of MS2 coat protein” value (input ligand: none) was 18.9 nM.
For “AAACUGUGAGGAUAUGCACGGGCCCUCUUAAUAAAACCAAAACAUGAGGAUCACCCAUGUAGAAGGCACACAUA [EX2 A.24] (Eterna round: R97, puzzle: Exclusion 2)”, the “apparent KD of MS2 coat protein” value (input ligand: FMN 200 uM) was 53.5 nM and the “apparent KD of MS2 coat protein” value (input ligand: none) was 543 nM.
For “AGCUAGUCAGGAUAUACGAACACCUCAAAAGAGGUGAAGGGACAUGAGGAUCACCCAUGUAGAAGGGACUAGCA [Mat - Exclusion 2 - JL mod - D29] (Eterna round: R96, puzzle: Exclusion 2)”, the “apparent KD of MS2 coat protein” value (input ligand: FMN 200 uM) was 167 nM, the “apparent KD of MS2 coat protein” value [1] was 21.3 nM and the “apparent KD of MS2 coat protein” value (input ligand: none) was 24.3 nM.
“ACUAUACGAGGAUAUACUGACGGGCCUCAGGCAUCCAUCAGACAUGAGGAUCACCCAUGUAGAAGGCGUAUACU [JR_Exc002_Sub408] (Eterna round: R96, puzzle: Exclusion 2)” was tested, and the “apparent KD of MS2 coat protein” value (input ligand: FMN 200 uM) was 459 nM, the “apparent KD of MS2 coat protein” value [1] was 44.4 nM and the “apparent KD of MS2 coat protein” value (input ligand: none) was 51.4 nM.
For “CCUCGACAUGAGGAUCACCCAUGUCAGGAUAUUGUGUUUUUGGUUUUUUACCUUUAGGCAAGAAGGGAUGUGUG [LRO-Excl1-18] (puzzle: Exclusion 1)”, the “apparent KD of MS2 coat protein” value [2] was 14.4 nM.
“AUCAACGUGUUAGGAUAUAAGCCUAAAAGAGACUUAGAAGGGACAUGAGGAUCACCCAUGUCGGGCGCCCAAGCUAUGCGACCU [Eternabot solution 4] (Eterna round: R96, puzzle: Exclusion NG 1)” was tested, and the “apparent KD of MS2 coat protein” value (input ligand: FMN 200 uM) was 32.8 nM, the “apparent KD of MS2 coat protein” value [1] was 17.4 nM and the “apparent KD of MS2 coat protein” value (input ligand: none) was 26.3 nM.
In the case of “AUGUUAUUCUGAGGAUAUUGUUUAUUCUUCUCACAUGAGGAUCACCCAUGUUUCCGUGUUUACCGCAAGAAGGCAGUUUUGUUU [JR_ExcNG2_Sub027] (Eterna round: R96, puzzle: Exclusion NG 2)”, the “apparent KD of MS2 coat protein” value [1] is reported as 22.1 nM.
For “GGGCUGGGAGGAUAUUCGUUUGGAGACAUGAGGAUCACCCAUGUGAUGCGAGGGAAGUCCGGAGAAGGCUCGGUUC [-24.8, -21.2 kcal, 22% A] (Eterna round: R97, puzzle: Exclusion 5)”, the “apparent KD of MS2 coat protein” value (input ligand: FMN 200 uM) was 24 nM and the “apparent KD of MS2 coat protein” value (input ligand: none) was 15.9 nM.
With “UUGCGGCAAGGAUAUACAUGAGGAUCACCCAUGUAGUAUUUGGUGCUGGCGAGCUGGUGUAGAAGGUGCACGCA [EX3 B.3] (Eterna round: R97, puzzle: Exclusion 3)” the “apparent KD of MS2 coat protein” value (input ligand: FMN 200 uM) was 21.2 nM and the “apparent KD of MS2 coat protein” value (input ligand: none) was 16.1 nM.
With “GACAUCGCAGGAUAUUAGGGUUUGUACAUGAGGAUCACCCAUGUUAAUUGGGUUAAUGUUUAAGAAGGGCGGUGUC [JR_EX5_Sub017] (Eterna round: R97, puzzle: Exclusion 5)” the “apparent KD of MS2 coat protein” value (input ligand: FMN 200 uM) was 528 nM and the “apparent KD of MS2 coat protein” value (input ligand: none) was 383 nM.
In the case of “AAUAAUAGCGAGGAUAUCGUAUCGGAAACGAUACGAGAAGGCGUAACAUGAGGAUCACCCAUGUGUCCUCAAAA [Mat - Exclusion 6 - Eli Mod - D7] (Eterna round: R97, puzzle: Exclusion 6)”, the “apparent KD of MS2 coat protein” value (input ligand: FMN 200 uM) is reported as 2520 nM and the “apparent KD of MS2 coat protein” value (input ligand: none) is reported as 146 nM.
